From paper PMC9482650, “Quantitative fragmentomics allow affinity mapping of interactomes” (Nature Communications, 2022)

T1: DLG3_2, Q92796
T1 sequence (Q92796 221-321, limits assumed, looked up): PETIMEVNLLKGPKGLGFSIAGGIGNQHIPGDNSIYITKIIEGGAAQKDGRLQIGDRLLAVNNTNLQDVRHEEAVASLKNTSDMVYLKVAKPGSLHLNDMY

T2: PARD3B_1, Q8TEW8
T2 sequence (Q8TEW8 196-299, limits assumed, looked up): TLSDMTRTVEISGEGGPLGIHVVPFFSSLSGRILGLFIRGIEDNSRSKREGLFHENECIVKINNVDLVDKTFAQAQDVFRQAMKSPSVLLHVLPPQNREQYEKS

T3: TX1BP3, O14907
T3 sequence (O14907 10-122, limits assumed, looked up): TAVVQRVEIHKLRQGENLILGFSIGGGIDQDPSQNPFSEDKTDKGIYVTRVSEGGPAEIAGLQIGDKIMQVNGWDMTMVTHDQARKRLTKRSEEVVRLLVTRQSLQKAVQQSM

T4: LIN7A, O14910
T4 sequence (O14910 103-200, limits assumed, looked up): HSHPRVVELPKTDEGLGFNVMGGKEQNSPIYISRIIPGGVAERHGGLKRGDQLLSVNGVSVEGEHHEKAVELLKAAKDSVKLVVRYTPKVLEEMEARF

T5: LIN7C, Q9NUP9
T5 sequence (Q9NUP9 88-185, limits assumed, looked up): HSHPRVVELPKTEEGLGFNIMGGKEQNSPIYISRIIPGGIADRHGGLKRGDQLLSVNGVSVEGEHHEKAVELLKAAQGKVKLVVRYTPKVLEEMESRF

T6: DLG3_1, Q92796
T6 sequence (Q92796 125-227, limits assumed, looked up): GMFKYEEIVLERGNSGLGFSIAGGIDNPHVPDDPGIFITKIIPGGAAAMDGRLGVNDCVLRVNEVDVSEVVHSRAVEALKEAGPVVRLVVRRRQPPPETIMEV

T7: SNTG2, Q9NY99
T7 sequence (Q9NY99 68-166, limits assumed, looked up): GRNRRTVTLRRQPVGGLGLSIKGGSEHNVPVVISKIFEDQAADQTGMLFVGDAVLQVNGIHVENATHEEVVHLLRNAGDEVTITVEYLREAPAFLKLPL

T8: APBA1_1, Q02410
T8 sequence (Q02410 651-752, limits assumed, looked up): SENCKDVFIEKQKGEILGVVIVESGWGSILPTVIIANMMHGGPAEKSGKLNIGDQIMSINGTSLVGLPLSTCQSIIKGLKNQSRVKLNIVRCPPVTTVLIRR

T9: APBA2_2, Q99767
T9 sequence (Q99767 654-744, limits assumed, looked up): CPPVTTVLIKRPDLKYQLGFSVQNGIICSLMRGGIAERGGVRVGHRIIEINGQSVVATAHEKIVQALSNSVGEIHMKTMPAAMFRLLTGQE

T10: RAPGEF6, Q8TEU7
T10 sequence (Q8TEU7 525-625, limits assumed, looked up): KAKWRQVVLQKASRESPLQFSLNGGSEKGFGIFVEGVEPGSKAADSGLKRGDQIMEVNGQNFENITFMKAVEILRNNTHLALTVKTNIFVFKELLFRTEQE

T11: PCLO, Q9Y6V0
T11 sequence (Q9Y6V0 4491-4600, limits assumed, looked up): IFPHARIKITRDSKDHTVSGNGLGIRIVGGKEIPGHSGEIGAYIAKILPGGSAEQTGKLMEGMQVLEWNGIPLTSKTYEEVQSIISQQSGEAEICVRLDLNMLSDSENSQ

T12: APBA2_1, Q99767
T12 sequence (Q99767 563-664, limits assumed, looked up): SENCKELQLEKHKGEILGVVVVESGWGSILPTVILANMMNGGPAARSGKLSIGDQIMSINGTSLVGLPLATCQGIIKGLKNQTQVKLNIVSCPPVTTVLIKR

B1: TYRP1, P17643 (peptide)
chain: KLQNPNQSVV
B2: KIT, P10721 (peptide)
chain: SQPLLVHDDV
B3: CLDN7, O95471 (peptide)
chain: PKSNSSKEYV
B4: PRKN, O60260 (peptide)
chain: VCMGDHWFDV
B5: CCL24, O00175 (peptide)
chain: QRYPGNQTTC
B6: CTNND2, Q9UQB3 (peptide)
chain: HYPASPDSWV

Assays:
Experiment in all cases: holdup assay
Parameters in all cases: key: below the threshold = too weak to quantify, mostly under pKd 3.1 to 4
Conditions in all cases: plain residues with an end cap or a label only (N-terminal biotin on a linker: ado-ado)
[1] = molecular target: T1, DLG3_2, Q92796
[2] = molecular target: T2, PARD3B_1, Q8TEW8
[3] = molecular target: GRIP2_7, Q9C0E4
[4] = molecular target: MAGI2_6, Q86UL8
[5] = molecular target: GRASP, Q7Z6J2
[6] = molecular target: DLG1_3, Q12959
[7] = molecular target: T3, TX1BP3, O14907
[8] = molecular target: FRMPD3, Q5JV73
[9] = molecular target: T4, LIN7A, O14910
[10] = molecular target: MAGI3_2, Q5TCQ9
[11] = molecular target: T5, LIN7C, Q9NUP9
[12] = molecular target: Inadl_9, Q8NI35
[13] = molecular target: ARHGEF12, Q9NZN5-2
[14] = molecular target: T6, DLG3_1, Q92796
[15] = molecular target: T7, SNTG2, Q9NY99
[16] = molecular target: LIMK2, P53671
[17] = molecular target: T8, APBA1_1, Q02410
[18] = molecular target: T9, APBA2_2, Q99767
[19] = molecular target: T10, RAPGEF6, Q8TEU7
[20] = molecular target: T11, PCLO, Q9Y6V0
[21] = molecular target: LNX1_1, Q8TBB1
[22] = molecular target: Inadl_10, Q8NI35
[23] = molecular target: LNX1_2, Q8TBB1
[24] = molecular target: HTRA2, O43464
[25] = molecular target: T12, APBA2_1, Q99767

GRIP2_7, Q9C0E4, sequence (Q9C0E4 934-1023): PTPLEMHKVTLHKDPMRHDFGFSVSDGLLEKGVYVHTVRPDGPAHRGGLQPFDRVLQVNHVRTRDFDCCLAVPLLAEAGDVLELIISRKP
FRMPD3, Q5JV73, sequence (Q5JV73 12-100): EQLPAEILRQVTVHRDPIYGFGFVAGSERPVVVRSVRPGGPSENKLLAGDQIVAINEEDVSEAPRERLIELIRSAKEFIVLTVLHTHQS
HTRA2, O43464, sequence (O43464 355-458): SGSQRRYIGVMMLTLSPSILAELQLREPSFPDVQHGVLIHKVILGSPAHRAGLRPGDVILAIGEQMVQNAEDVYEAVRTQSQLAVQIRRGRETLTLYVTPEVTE
Inadl_9, Q8NI35, sequence (Q8NI35 1530-1615): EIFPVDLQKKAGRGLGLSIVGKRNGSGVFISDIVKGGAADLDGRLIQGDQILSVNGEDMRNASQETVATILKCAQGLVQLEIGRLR
LNX1_1, Q8TBB1, sequence (Q8TBB1 261-371): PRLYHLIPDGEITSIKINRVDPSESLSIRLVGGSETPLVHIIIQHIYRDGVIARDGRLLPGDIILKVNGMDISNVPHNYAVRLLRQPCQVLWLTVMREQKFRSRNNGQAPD
Inadl_10, Q8NI35, sequence (Q8NI35 1673-1763): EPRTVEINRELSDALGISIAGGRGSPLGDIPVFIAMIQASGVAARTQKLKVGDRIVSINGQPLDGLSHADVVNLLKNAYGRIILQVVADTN
DLG1_3, Q12959, sequence (Q12959 457-571): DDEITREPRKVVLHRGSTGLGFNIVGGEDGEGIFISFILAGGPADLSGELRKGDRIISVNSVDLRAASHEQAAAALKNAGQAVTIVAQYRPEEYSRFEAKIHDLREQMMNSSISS
LIMK2, P53671, sequence (P53671 143-248): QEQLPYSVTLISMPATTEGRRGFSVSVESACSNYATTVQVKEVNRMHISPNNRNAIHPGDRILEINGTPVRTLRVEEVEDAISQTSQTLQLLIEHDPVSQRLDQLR
GRASP, Q7Z6J2, sequence (Q7Z6J2 96-193): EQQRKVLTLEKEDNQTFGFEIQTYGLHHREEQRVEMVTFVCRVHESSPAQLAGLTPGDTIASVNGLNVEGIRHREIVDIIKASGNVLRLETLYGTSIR
LNX1_2, Q8TBB1, sequence (Q8TBB1 371-470): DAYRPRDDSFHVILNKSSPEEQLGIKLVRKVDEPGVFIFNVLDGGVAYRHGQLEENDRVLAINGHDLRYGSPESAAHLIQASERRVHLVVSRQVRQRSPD
MAGI2_6, Q86UL8, sequence (Q86UL8 1141-1229): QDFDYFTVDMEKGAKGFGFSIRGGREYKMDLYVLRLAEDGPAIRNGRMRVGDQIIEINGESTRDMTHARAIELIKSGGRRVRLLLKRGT
ARHGEF12, Q9NZN5-2, sequence (Q9NZN5 other isoform, or with tags, fused parts or gaps): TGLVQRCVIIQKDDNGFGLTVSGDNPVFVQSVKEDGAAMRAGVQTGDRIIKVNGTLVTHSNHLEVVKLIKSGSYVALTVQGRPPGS
MAGI3_2, Q5TCQ9, sequence (Q5TCQ9 398-503): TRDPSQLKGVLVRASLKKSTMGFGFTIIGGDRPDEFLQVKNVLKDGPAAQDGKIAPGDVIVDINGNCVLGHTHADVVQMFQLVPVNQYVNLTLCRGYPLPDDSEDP

Binder | pKd [1] | pKd [2] | pKd [3] | pKd [4] | pKd [5] | pKd [6] | pKd [7] | pKd [8] | pKd [9] | pKd [10] | pKd [11] | pKd [12] | pKd [13] | pKd [14] | pKd [15] | pKd [16] | pKd [17] | pKd [18] | pKd [19] | pKd [20] | further results
B1 | 3.86 | below the threshold | below the threshold | below the threshold | 4 | 3.56 | below the threshold | below the threshold | below the threshold | 4.46 | below the threshold | below the threshold | 3.92 | below the threshold | 3.64 | below the threshold | below the threshold | below the threshold | below the threshold | below the threshold | pKd [21]: 3.86; pKd [22]: below the threshold; pKd [23]: below the threshold; pKd [24]: below the threshold; pKd [25]: below the threshold
B2 | below the threshold | below the threshold | below the threshold | below the threshold | below the threshold | below the threshold | below the threshold | below the threshold | below the threshold | below the threshold | below the threshold | below the threshold | below the threshold | below the threshold | below the threshold | below the threshold | below the threshold | below the threshold | below the threshold | below the threshold | pKd [21]: below the threshold; pKd [22]: below the threshold; pKd [23]: below the threshold; pKd [24]: below the threshold; pKd [25]: below the threshold
B3 | below the threshold | below the threshold | below the threshold | below the threshold | below the threshold | below the threshold | below the threshold | below the threshold | below the threshold | below the threshold | 4.06 | 3.71 | below the threshold | below the threshold | below the threshold | below the threshold | below the threshold | below the threshold | below the threshold | below the threshold | pKd [21]: below the threshold; pKd [22]: below the threshold; pKd [23]: below the threshold; pKd [24]: below the threshold; pKd [25]: below the threshold
B4 | below the threshold | 4.78 | 4.36 | 4.19 | 3.53 | below the threshold | 3.77 | 4.15 | below the threshold | below the threshold | below the threshold | 3.69 | below the threshold | below the threshold | below the threshold | below the threshold | below the threshold | below the threshold | below the threshold | below the threshold | pKd [21]: 3.94; pKd [22]: below the threshold; pKd [23]: 4.07; pKd [24]: 3.96; pKd [25]: below the threshold
B5 | 4.26 | below the threshold | below the threshold | below the threshold | 3.48 | 3.76 | below the threshold | below the threshold | below the threshold | below the threshold | below the threshold | below the threshold | 4.15 | below the threshold | below the threshold | below the threshold | below the threshold | below the threshold | 3.58 | below the threshold | pKd [21]: 3.78; pKd [22]: below the threshold; pKd [23]: 3.49; pKd [24]: below the threshold; pKd [25]: below the threshold
B6 | 4.3 | 3.52 | 3.95 | 5.37 | 3.76 | below the threshold | 5.15 | 3.71 | below the threshold | 3.86 | below the threshold | 3.9 | below the threshold | 3.99 | 3.72 | below the threshold | below the threshold | below the threshold | below the threshold | below the threshold | pKd [21]: 4.12; pKd [22]: 3.53; pKd [23]: 3.8; pKd [24]: 4.12; pKd [25]: below the threshold
